The term Kd denotes the constant that tells how readily two partners part at equilibrium. Higher therefore signals weaker binding.

In US20260325634 (published 2026) one finds Kd data, which are given here for one molecule.

The assay has as its target T1, CD123 (IL-3R alpha) (human, UniProt P26951).
T1 chain: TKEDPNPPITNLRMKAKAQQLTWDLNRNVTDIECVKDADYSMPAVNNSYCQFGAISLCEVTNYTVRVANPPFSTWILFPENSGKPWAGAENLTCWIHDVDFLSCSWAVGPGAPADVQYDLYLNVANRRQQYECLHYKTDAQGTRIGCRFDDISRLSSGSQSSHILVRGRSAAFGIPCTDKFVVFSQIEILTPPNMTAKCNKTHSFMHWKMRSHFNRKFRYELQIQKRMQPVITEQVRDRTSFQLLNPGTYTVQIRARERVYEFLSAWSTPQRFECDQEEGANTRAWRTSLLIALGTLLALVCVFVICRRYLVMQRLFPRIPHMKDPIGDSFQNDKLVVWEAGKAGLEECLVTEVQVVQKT
As to the kind of experiment: BLI. On the technique in general: BLI is a label-free optical method that tracks binding on a fibre tip over time.

B1: AB1 (18B4D5) (antibody, V domains shown)
VH: EVKLQESGPGLVKPSQSLSLTCTVTGYSITSDYTWNWIRQFPGNKLEWMGYISFSGSTSYNPSLKSRLSITRDTSKNQFFLQLNSVTTEDTATYYCARGLDYWGQGTTLTVSS
VL: DIVMTQSPAIMSASLGERVTMTCTASSSISSSYLYWYQQKPGSSPKLWIYSTSNLASGVPARFSGSGSGTSYSLTISSMEAEDAATYYCHQLHRSPWTFGGGTKLEIKR
With B1, the Kd was < 1 pM.
